In patent US20140087995A1 (published 2014):
Numbered stars: 1 amine (or outer) side, 2 acyl side, 3 side chain; on linkers, the order of the positions; unused ones are H or OH. Bridge positions count the residues as written; N and C are the ends. Side chains are listed from the residue outwards. Ends that are not written are not given here. * marks the point of attachment. C20 diacid = O=C(O)CCCCCCCCCCCCCCCCCCC(=O)*; γGlu = O=C(O)[C@H](CCC(=O)[*:2])N[*:1]; AEEA = NCCOCCOCC(=O)O

T1: human calcitonin receptor (human, UniProt P30988 25-474)
T1 construct: whole, on cells; Assayed as cell membranes of BHK tk'ts 13 cells stably transfected with the human calcitonin receptor (Assay VII); also called hCTR; hCT
T1 sequence (looked up): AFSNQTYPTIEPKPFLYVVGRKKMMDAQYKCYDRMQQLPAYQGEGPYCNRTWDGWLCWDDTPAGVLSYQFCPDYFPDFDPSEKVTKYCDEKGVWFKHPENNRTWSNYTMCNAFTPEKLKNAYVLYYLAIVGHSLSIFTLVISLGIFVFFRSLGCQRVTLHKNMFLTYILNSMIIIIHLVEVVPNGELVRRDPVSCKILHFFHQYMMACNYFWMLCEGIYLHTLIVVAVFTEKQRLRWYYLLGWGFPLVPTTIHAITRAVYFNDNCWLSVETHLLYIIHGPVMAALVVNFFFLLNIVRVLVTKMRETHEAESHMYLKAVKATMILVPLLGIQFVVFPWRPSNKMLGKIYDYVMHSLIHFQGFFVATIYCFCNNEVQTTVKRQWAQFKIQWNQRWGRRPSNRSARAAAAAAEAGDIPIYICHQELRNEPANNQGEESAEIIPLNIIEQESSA

B1: N^ε1-[2-[2-[2-[[2-[2-[2-[[(4S)-4-carboxy-4-(19-carboxynonadecanoylamino)butanoyl]amino]ethoxy]ethoxy]acetyl]amino]ethoxy]ethoxy]acetyl]-[Arg17,Pro21,Pro27,Arg34 … (peptide)
peptide: K([AEEA-AEEA-γGlu-C20 diacid])CNTATCATQRLANFLRHSSPNFGAIPSSTNVGRNTY-NH2
modifications: disulfide 2-7; N-terminus assumed
SMILES: CC[C@H](C)[C@H](NC(=O)[C@H](C)NC(=O)CNC(=O)[C@H](Cc1ccccc1)NC(=O)[C@H](CC(N)=O)NC(=O)[C@@H]1CCCN1C(=O)[C@H](CO)NC(=O)[C@H](CO)NC(=O)[C@H](Cc1c[nH]cn1)NC(=O)[C@H](CCCNC(=N)N)NC(=O)[C@H](CC(C)C)NC(=O)[C@H](Cc1ccccc1)NC(=O)[C@H](CC(N)=O)NC(=O)[C@H](C)NC(=O)[C@H](CC(C)C)NC(=O)[C@H](CCCNC(=N)N)NC(=O)[C@H](CCC(N)=O)NC(=O)[C@@H](NC(=O)[C@H](C)NC(=O)[C@@H]1CSSC[C@H](NC(=O)[C@@H](N)CCCCNC(=O)COCCOCCNC(=O)COCCOCCNC(=O)CC[C@H](NC(=O)CCCCCCCCCCCCCCCCCCC(=O)O)C(=O)O)C(=O)N[C@@H](CC(N)=O)C(=O)N[C@@H]([C@@H](C)O)C(=O)N[C@@H](C)C(=O)N[C@@H]([C@@H](C)O)C(=O)N1)[C@@H](C)O)C(=O)N1CCC[C@H]1C(=O)N[C@@H](CO)C(=O)N[C@@H](CO)C(=O)N[C@H](C(=O)N[C@@H](CC(N)=O)C(=O)N[C@H](C(=O)NCC(=O)N[C@@H](CCCNC(=N)N)C(=O)N[C@@H](CC(N)=O)C(=O)N[C@H](C(=O)N[C@@H](Cc1ccc(O)cc1)C(N)=O)[C@@H](C)O)C(C)C)[C@@H](C)O
notes: also called compound 95
B2: N^ε1-[2-[2-[2-[[2-[2-[2-[[(4S)-4-carboxy-4-(19-carboxynonadecanoylamino)butanoyl]amino]ethoxy]ethoxy]acetyl]amino]ethoxy]ethoxy]acetyl]-[Arg17,Pro21,Pro27,His34 … (peptide)
peptide: K([AEEA-AEEA-γGlu-C20 diacid])CNTATCATQRLANFLRHSSPNFGAIPSSTNVGHNTY-NH2
modifications: disulfide 2-7; N-terminus assumed
SMILES: CC[C@H](C)[C@H](NC(=O)[C@H](C)NC(=O)CNC(=O)[C@H](Cc1ccccc1)NC(=O)[C@H](CC(N)=O)NC(=O)[C@@H]1CCCN1C(=O)[C@H](CO)NC(=O)[C@H](CO)NC(=O)[C@H](Cc1c[nH]cn1)NC(=O)[C@H](CCCNC(=N)N)NC(=O)[C@H](CC(C)C)NC(=O)[C@H](Cc1ccccc1)NC(=O)[C@H](CC(N)=O)NC(=O)[C@H](C)NC(=O)[C@H](CC(C)C)NC(=O)[C@H](CCCNC(=N)N)NC(=O)[C@H](CCC(N)=O)NC(=O)[C@@H](NC(=O)[C@H](C)NC(=O)[C@@H]1CSSC[C@H](NC(=O)[C@@H](N)CCCCNC(=O)COCCOCCNC(=O)COCCOCCNC(=O)CC[C@H](NC(=O)CCCCCCCCCCCCCCCCCCC(=O)O)C(=O)O)C(=O)N[C@@H](CC(N)=O)C(=O)N[C@@H]([C@@H](C)O)C(=O)N[C@@H](C)C(=O)N[C@@H]([C@@H](C)O)C(=O)N1)[C@@H](C)O)C(=O)N1CCC[C@H]1C(=O)N[C@@H](CO)C(=O)N[C@@H](CO)C(=O)N[C@H](C(=O)N[C@@H](CC(N)=O)C(=O)N[C@H](C(=O)NCC(=O)N[C@@H](Cc1c[nH]cn1)C(=O)N[C@@H](CC(N)=O)C(=O)N[C@H](C(=O)N[C@@H](Cc1ccc(O)cc1)C(N)=O)[C@@H](C)O)C(C)C)[C@@H](C)O
notes: also called compound 97
B3: N^ε1-[2-[2-[2-[[2-[2-[2-[[(4S)-4-carboxy-4-(19-carboxynonadecanoylamino)butanoyl]amino]ethoxy]ethoxy]acetyl]amino]ethoxy]ethoxy]acetyl]-[Arg17,Pro21,Pro27,Pro31 … (peptide)
peptide: K([AEEA-AEEA-γGlu-C20 diacid])CNTATCATQRLANFLRHSSPNFGAIPSSTPVGSNTY-NH2
modifications: disulfide 2-7; N-terminus assumed
SMILES: CC[C@H](C)[C@H](NC(=O)[C@H](C)NC(=O)CNC(=O)[C@H](Cc1ccccc1)NC(=O)[C@H](CC(N)=O)NC(=O)[C@@H]1CCCN1C(=O)[C@H](CO)NC(=O)[C@H](CO)NC(=O)[C@H](Cc1c[nH]cn1)NC(=O)[C@H](CCCNC(=N)N)NC(=O)[C@H](CC(C)C)NC(=O)[C@H](Cc1ccccc1)NC(=O)[C@H](CC(N)=O)NC(=O)[C@H](C)NC(=O)[C@H](CC(C)C)NC(=O)[C@H](CCCNC(=N)N)NC(=O)[C@H](CCC(N)=O)NC(=O)[C@@H](NC(=O)[C@H](C)NC(=O)[C@@H]1CSSC[C@H](NC(=O)[C@@H](N)CCCCNC(=O)COCCOCCNC(=O)COCCOCCNC(=O)CC[C@H](NC(=O)CCCCCCCCCCCCCCCCCCC(=O)O)C(=O)O)C(=O)N[C@@H](CC(N)=O)C(=O)N[C@@H]([C@@H](C)O)C(=O)N[C@@H](C)C(=O)N[C@@H]([C@@H](C)O)C(=O)N1)[C@@H](C)O)C(=O)N1CCC[C@H]1C(=O)N[C@@H](CO)C(=O)N[C@@H](CO)C(=O)N[C@H](C(=O)N1CCC[C@H]1C(=O)N[C@H](C(=O)NCC(=O)N[C@@H](CO)C(=O)N[C@@H](CC(N)=O)C(=O)N[C@H](C(=O)N[C@@H](Cc1ccc(O)cc1)C(N)=O)[C@@H](C)O)C(C)C)[C@@H](C)O
notes: also called compound 96
B4: N^ε1-[2-[2-[2-[[2-[2-[2-[[(4S)-4-carboxy-4-(19-carboxynonadecanoylamino)butanoyl]amino]ethoxy]ethoxy]acetyl]amino]ethoxy]ethoxy]acetyl]-[Arg17,Pro21,Pro27,Pro34 … (peptide)
peptide: K([AEEA-AEEA-γGlu-C20 diacid])CNTATCATQRLANFLRHSSPNFGAIPSSTNVGPNTY-NH2
modifications: disulfide 2-7; N-terminus assumed
SMILES: CC[C@H](C)[C@H](NC(=O)[C@H](C)NC(=O)CNC(=O)[C@H](Cc1ccccc1)NC(=O)[C@H](CC(N)=O)NC(=O)[C@@H]1CCCN1C(=O)[C@H](CO)NC(=O)[C@H](CO)NC(=O)[C@H](Cc1c[nH]cn1)NC(=O)[C@H](CCCNC(=N)N)NC(=O)[C@H](CC(C)C)NC(=O)[C@H](Cc1ccccc1)NC(=O)[C@H](CC(N)=O)NC(=O)[C@H](C)NC(=O)[C@H](CC(C)C)NC(=O)[C@H](CCCNC(=N)N)NC(=O)[C@H](CCC(N)=O)NC(=O)[C@@H](NC(=O)[C@H](C)NC(=O)[C@@H]1CSSC[C@H](NC(=O)[C@@H](N)CCCCNC(=O)COCCOCCNC(=O)COCCOCCNC(=O)CC[C@H](NC(=O)CCCCCCCCCCCCCCCCCCC(=O)O)C(=O)O)C(=O)N[C@@H](CC(N)=O)C(=O)N[C@@H]([C@@H](C)O)C(=O)N[C@@H](C)C(=O)N[C@@H]([C@@H](C)O)C(=O)N1)[C@@H](C)O)C(=O)N1CCC[C@H]1C(=O)N[C@@H](CO)C(=O)N[C@@H](CO)C(=O)N[C@H](C(=O)N[C@@H](CC(N)=O)C(=O)N[C@H](C(=O)NCC(=O)N1CCC[C@H]1C(=O)N[C@@H](CC(N)=O)C(=O)N[C@H](C(=O)N[C@@H](Cc1ccc(O)cc1)C(N)=O)[C@@H](C)O)C(C)C)[C@@H](C)O
notes: also called compound 98

target: T1, human calcitonin receptor; assay: IC50 at hCTR divided by IC50 at hAmylin-R (SPA competition assays V and VII)
Method: The resulting pellet was resuspended, homogenized and centrifuged (20.000 rpm, 15 min) in a buffer containing 20 mM Na-HEPES and 0.1 mM EDTA (pH 7.4, buffer 2). The resulting pellet was resuspended in buffer 2 and protein concentration was measured (BCA protein Assay, Pierce). The homogenate was kept cold during the whole procedure. The membranes were kept at −80° C. until use. The assay was performed in a 384 well Optiplate (PerkinElmer) in a total volume of 40 ul. Membranes were mixed with SPA beads. Final concentration of membranes 35 ng/μL final and SPA beads was 0.05 mg/well. Test-compounds were dissolved in DMSO and further diluted in assay buffer (50 mM Hepes, pH 7.4, 1 mM CaCl2, 5 mM MgCl₂, 0.1% OA and 0.02% Tween20). […] The final mixture was incubated with shaking at 400 rpm for 120 min at 25° C. prior to centrifugation (1500 rpm, 10 min). Samples were analyzed on TopCounter™ (Packard). The IC₅₀ was calculated using (one site binding competition analysis) GraphPad Prism5 as a measure of receptor affinity.
Membranes were prepared in the following way; the cells were rinsed with PBS and incubated with Versene for approximately 5 min before harvesting. The cells were flushed with PBS and the cell-suspension was centrifuged for 5 min at 1000 rpm. Cells were homogenized (Ultrathurrax) in a buffer containing 20 mM Na-HEPES and 10 mM EDTA (pH 7.4) and centrifuged at 20.000 rpm for 15 min. The resulting pellet was resuspended, homogenized and centrifuged (20.000 rpm, 15 min) in a buffer containing 20 mM Na-HEPES and 0.1 mM EDTA (pH 7.4, buffer 2). The resulting pellet was resuspended in buffer 2 and protein concentration was measured (BCA protein Assay, Pierce). The homogenate was kept cold during the whole procedure. The membranes were kept at −80° C. until use. Assay was performed in a 384 well Optiplate (PerkinElmer) in a total volume of 40 ul. Membranes were mixed with SPA beads.

Binder	Ratio hCT/hAmylin binding
B1	63.4
B2	104
B3	79.6
B4	74.1

target: T1, human calcitonin receptor; assay: SPA competition vs 125I-calcitonin, membranes of BHK cells with human calcitonin receptor (Assay VII)
Method: Membranes were prepared in the following way; the cells were rinsed with PBS and incubated with Versene for approximately 5 min before harvesting. The cells were flushed with PBS and the cell-suspension was centrifuged for 5 min at 1000 rpm. Cells were homogenized (Ultrathurrax) in a buffer containing 20 mM Na-HEPES and 10 mM EDTA (pH 7.4) and centrifuged at 20.000 rpm for 15 min. The resulting pellet was resuspended, homogenized and centrifuged (20.000 rpm, 15 min) in a buffer containing 20 mM Na-HEPES and 0.1 mM EDTA (pH 7.4, buffer 2). The resulting pellet was resuspended in buffer 2 and protein concentration was measured (BCA protein Assay, Pierce). The homogenate was kept cold during the whole procedure. The membranes were kept at −80° C. until use. Assay was performed in a 384 well Optiplate (PerkinElmer) in a total volume of 40 ul. Membranes were mixed with SPA beads. Final concentration of membranes 35 ng/μL final and Final concentration of SPA beads was 0.05 mg/well. Test-compounds were dissolved in DMSO and further diluted in assay buffer (50 mM Hepes, pH 7.4, 1 mM CaCl2, 5 mM MgCl₂, 0.1% OA and 0.02% Tween20). […] The final mixture was incubated for 120 min with shaking at 400 rpm at 25° C. prior to centrifugation (1500 rpm, 10 min). Samples were analyzed on TopCounter™ (Packard). The […] was calculated using (one site binding competition analysis) GraphPad Prism5 as a measure of receptor affinity.

Binder	IC50 [nM]
B1	61.3
B2	58.9
B3	13.2
B4	6.74
